B1: Outer-membrane lipoprotein carrier protein (Escherichia coli (strain K12)), P61316 (parent)
chain: MKKIAITCALLSSLVASSVWADAASDLKSRLDKVSSFHASFTQKVTDGSGAAVQEGQGDLWVKRPNLFNWHMTQPDESILVSDGKTLWFYNPFVEQATATWLKDATGNTPFMLIARNQSSDWQQYNIKQNGDDFVLTPKASNGNLKQFTINVGRDGTIHQFSAVEQDDQRSSYQLKSQQNGAVDAAKFTFTPPQGVTVDDQRK
partner: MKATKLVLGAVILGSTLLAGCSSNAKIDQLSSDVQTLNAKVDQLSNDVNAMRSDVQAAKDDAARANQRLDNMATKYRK

Variants of B1 are the subject of this experiment. The settings on record: with lpp_ecoli lpp.
Turning to I114G, the “effect of a mutation on the interaction” value is on record as “increasing interaction”.
